Measured values: patent publication US20240425618A1 (YOUCARE PHARMACEUTICAL GROUP, published 2024)

Target: polypeptide N52 simulating a target sequence (SARS-CoV-2, N-terminal acetyl (Ac); C-terminal amide (NH2))

B1: lipopeptide IPB24 (peptide)
peptide: SVVNIQKEIDRLNEVAKNLNESLIDLQELGKYEQYIKK
modifications: N-terminal acetyl (Ac); flexible linker PEG4 (from Fmoc-NH-PEG4-CH2CH2COOH) between the antiviral polypeptide sequence and the C-terminal K; cholesteryl hemisuccinate on the C-terminal K; C-terminal amide (NH2)
Q: B1 was tested. Which “Tm of the complex” value did it give?
A: 90 °C
